Results as given in paper PMC5616090.

How the values were obtained:
Q99816 [1] = experiment: differential scanning calorimetry; conditions: other: differential scanning calorimetry
Q99816 [2] = experiment: circular dichroism thermal unfolding; conditions: other: circular dichroism thermal unfolding
[3] = target: Tumor susceptibility gene-101 coiled coil domain (TSG101cc), residues 229-304 (human) (UniProt Q99816); experiment: differential scanning calorimetry
[4] = target: Tumor susceptibility gene-101 coiled coil domain (TSG101cc), residues 229-304 (human) (UniProt Q99816); experiment: circular dichroism thermal unfolding

Chain of Tumor susceptibility gene-101 coiled coil domain (TSG101cc), residues 229-304 (Q99816 2-390): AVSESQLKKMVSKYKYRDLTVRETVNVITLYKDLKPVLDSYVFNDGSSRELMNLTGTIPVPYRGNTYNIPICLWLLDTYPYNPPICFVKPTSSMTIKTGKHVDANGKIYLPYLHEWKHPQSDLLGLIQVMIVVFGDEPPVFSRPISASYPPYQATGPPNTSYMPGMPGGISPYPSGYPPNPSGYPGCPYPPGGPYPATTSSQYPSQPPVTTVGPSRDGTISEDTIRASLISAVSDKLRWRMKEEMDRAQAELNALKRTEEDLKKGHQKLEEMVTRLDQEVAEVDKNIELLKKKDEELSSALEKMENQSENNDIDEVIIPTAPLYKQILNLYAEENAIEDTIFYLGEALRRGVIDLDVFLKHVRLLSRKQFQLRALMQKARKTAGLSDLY

Row | stoichiometry N [3] | stoichiometry N [4] | Substance | dH (unfolding and dissociation of the tetramer, per mol of monomer) (Q99816 [1]) | dH (unfolding and dissociation of the tetramer, per mol of monomer) (Q99816 [2])
1 |  |  | Tumor susceptibility gene-101 coiled coil domain (TSG101cc), residues 229-304 | 45.6 kcal/mol | 56.5 kcal/mol
2 | 4 | 4 | Tumor susceptibility gene-101 coiled coil domain (TSG101cc), residues 229-304 (from UniProt Q99816 229-304) (domain or fragment) |  | 
